Laboratory results: patent US20130011427A1 (priority 2009, published 2013)

Key:
[1] = tested on: HLA-B7 (HLA-B*0702) Tg mice, CD4-depleted splenocytes; assay type: cell-based, mouse
[2] = tested on: HLA-A24/huCD8α (HLA-A*2402) Tg mice, CD4-depleted splenocytes; assay type: cell-based, mouse
[3] = tested on: HLA-DR4/huCD4 (DRB1*0401) Tg mice, CD8-depleted splenocytes; assay type: cell-based, mouse
[4] = tested on: HLA-DR2 (DRB1*1501) Tg mice, CD8-depleted splenocytes; assay type: cell-based, mouse
[5] = tested on: HLA-A2.1 (HLA-A*0201) Tg mice, CD4-depleted splenocytes; assay type: cell-based, mouse
[6] = target: HLA-A24 (HLA-A*2402 with human β2-microglobulin) (human); assay: cell-based or functional assay
[7] = target: HLA-DR4 (HLA-DRA*0101 / HLA-DRB1*0401) (human); assay: cell-based or functional assay
[8] = target: HLA-DR2 (chimeric HLA-DRA1*0101/DRB1*1501 with I-E domains) (human; murine) (UniProt Q8BHN5); assay: cell-based or functional assay
[9] = target: HLA-B7 (chimeric HLA-B*0702 / H-2K^d heavy chain) (human; murine) (UniProt P01902); assay: cell-based or functional assay
[10] = target: HLA-DR3 (HLA-DRA*0101 / HLA-DRB1*0301) (human); assay: cell-based or functional assay

Sequence of UniProt P01902 (P01902 whole entry, change not shown): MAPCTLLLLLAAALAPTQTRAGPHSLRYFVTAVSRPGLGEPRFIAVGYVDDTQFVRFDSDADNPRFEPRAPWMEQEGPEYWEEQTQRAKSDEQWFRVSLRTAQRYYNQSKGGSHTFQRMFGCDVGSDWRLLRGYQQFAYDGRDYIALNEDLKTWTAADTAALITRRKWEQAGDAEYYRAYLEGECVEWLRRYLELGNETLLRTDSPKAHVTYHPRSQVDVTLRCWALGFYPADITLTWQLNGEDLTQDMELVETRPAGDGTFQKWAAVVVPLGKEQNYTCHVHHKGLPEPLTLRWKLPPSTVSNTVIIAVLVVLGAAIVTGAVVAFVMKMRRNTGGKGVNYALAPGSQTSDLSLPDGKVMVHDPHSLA
Sequence of UniProt Q8BHN5 (Q8BHN5 whole entry, stated change not applied): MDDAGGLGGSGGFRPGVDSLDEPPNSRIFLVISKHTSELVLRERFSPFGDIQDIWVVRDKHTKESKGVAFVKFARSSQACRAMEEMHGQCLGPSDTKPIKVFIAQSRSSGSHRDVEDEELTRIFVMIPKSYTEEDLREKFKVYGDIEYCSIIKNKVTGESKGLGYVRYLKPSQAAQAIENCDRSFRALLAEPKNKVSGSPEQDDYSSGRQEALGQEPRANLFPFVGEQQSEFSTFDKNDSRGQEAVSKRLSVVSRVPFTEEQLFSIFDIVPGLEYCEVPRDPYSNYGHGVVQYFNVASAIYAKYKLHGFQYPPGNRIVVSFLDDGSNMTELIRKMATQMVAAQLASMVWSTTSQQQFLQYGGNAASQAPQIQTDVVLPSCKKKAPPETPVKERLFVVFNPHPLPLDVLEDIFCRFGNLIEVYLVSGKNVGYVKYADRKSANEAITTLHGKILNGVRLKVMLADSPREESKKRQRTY

Substance	T cell activation of HLA transgenic mice (SFC/10^6) IFN-γ ELISpot, B7 [1] [SFC/10^6]	IFN-γ ELISpot (SFC/10^6) [6] [SFC/10^6]	IFN-γ ELISpot (SFC/10^6) [7] [SFC/10^6]	also measured
ISAYTPWAILPSVVGFWI [NS2b 107-124]	81 ± 8	–	–	T cell activation of HLA transgenic mice (SFC/10^6) IFN-γ ELISpot, A24 [2]: 50 ± 11 SFC/10^6; T cell activation of HLA transgenic mice (SFC/10^6) IFN-γ ELISpot, DR4 [3]: 163 ± 4 SFC/10^6
LRNPGYALVAAVIGWML [prM 129-145]	31 ± 7	–	–	T cell activation of HLA transgenic mice (SFC/10^6) IFN-γ ELISpot, DR2 [4]: 62 ± 11 SFC/10^6; T cell activation of HLA transgenic mice (SFC/10^6) IFN-γ ELISpot, A24 [2]: 71 ± 38 SFC/10^6
PAAPSYTLKLGEYGEVTV [E 171-188]	996 ± 100	–	–	T cell activation of HLA transgenic mice (SFC/10^6) IFN-γ ELISpot, A2 [5]: 279 ± 217 SFC/10^6
SAEVEEHRTIRVLEMV [NS5 153-168]	112 ± 72	–	–	T cell activation of HLA transgenic mice (SFC/10^6) IFN-γ ELISpot, DR2 [4]: 250 ± 24 SFC/10^6; T cell activation of HLA transgenic mice (SFC/10^6) IFN-γ ELISpot, A2 [5]: 332 ± 52 SFC/10^6
TFLVHREWFMDLNLPW [E 210-225]	519 ± 477	–	–	T cell activation of HLA transgenic mice (SFC/10^6) IFN-γ ELISpot, A2 [5]: 323 ± 175 SFC/10^6
WNV E 195-212 peptide	–	137	53	–
WNV NS2a 45-61 peptide	–	243	74	IFN-γ ELISpot (SFC/10^6) [8]: 307 SFC/10^6
WNV NS2b 107-124 peptide	–	50	163	IFN-γ ELISpot (SFC/10^6) [9]: 81 SFC/10^6
WNV NS4a 86-103 peptide	–	65	63	–
WNV NS5 470-486 peptide	–	183	–	–
WNV NS5 863-879 peptide	–	79	33	IFN-γ ELISpot (SFC/10^6) [10]: 121 SFC/10^6
WNV prM 129-145 peptide	–	71	–	IFN-γ ELISpot (SFC/10^6) [8]: 62 SFC/10^6; IFN-γ ELISpot (SFC/10^6) [9]: 31 SFC/10^6
YAQMWLLLYFHRRDLRLM [NS5 763-780]	36 ± 16	–	–	T cell activation of HLA transgenic mice (SFC/10^6) IFN-γ ELISpot, DR4 [3]: 91 ± 32 SFC/10^6
